This is an account of results in paper PMC2886305 (Molecular cell, 2010).

The term Kd denotes the equilibrium constant for the complex coming apart.

Where no end group is shown, it is not given here.

Data set [1] has as its system CBX7 chromodomain (CBX7CD). The experiment in a line: fluorescence anisotropy. The settings on record: not given in material (buffer, salt, pH and temperature in supplement). A general note: In fluorescence polarisation assays a small probe gives low polarisation when free and higher when bound to something large.
Data set [2] concerns the target H3K9me3 peptide of the fluorescence anisotropy assay. Briefly: fluorescence polarisation.
The next data set has as its target T1, CBX7CD (Mus musculus, UniProt Q8VDS3).
T1 sequence (Q8VDS3 11-69 limits assumed): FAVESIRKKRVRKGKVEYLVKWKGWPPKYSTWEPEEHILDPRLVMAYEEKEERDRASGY
The format is binding. The settings on record: fluorescence anisotropy, fluorescein-labeled peptide; measured in triplicate.

Data set [3] relates to CBX7 at INK4b/ARF/INK4a locus, PC3 cells. The experiment in a line: ChIP of CBX7 occupation in PC3 cells treated with α-amanitin. It counts as cell-based, human. To be noted: whole PC3 cell treatment, 10 μg/ml, relative to histone H3.
Data set [4] deals with RNA Pol II (ANRIL transcription), PC3 nuclei. The experiment in a line: In vitro transcription of ANRIL from PC3 whole nuclei. To be noted: [α-32P]-UTP incorporation. The format is cell-based, human.
The subject of data set [5] is INK4b/ARF/INK4a locus, PC3 cell nuclei. Briefly: Quantitative ChIP of PC3 nuclei after RNase A. The format is cell-based, human.
For another data set, the target named is T2, CBX7 chromodomain ( (human or mouse cDNA cloned), UniProt Q8VDS3 1-71).
T2 sequence: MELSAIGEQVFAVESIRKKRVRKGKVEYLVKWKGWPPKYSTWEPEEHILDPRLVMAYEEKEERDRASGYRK
Briefly: fluorescence polarisation.

The mark [6] stands for this setting: RNase A treatment of PC3 cell nuclei.

As for ANRIL loop A RNA, the Kd in data set [1] amounted to 13.7 µM.

Regarding ANRIL loop B RNA, in data set [1], the Kd was determined as 30.2 µM.

With ANRIL loop C RNA, the dissociation constant Kd in data set [1] was found to be 14.6 µM.

In data set [2], “CBX7 chromodomain (from UniProt Q8VDS3 1-71) (domain or fragment)” returned a dissociation constant (Kd) of 16.5 µM.

Consider “H3K9me3: H3K9me3 peptide (histone H3 methylated at lysine 9)”, for which, in the data set with CBX7CD, the affinity, expressed as Kd, was 16.5 ± 0.8 µM.

For α-amanitin, the “CBX7 levels (ChIP)” value in data set [3] is recorded as “depleted levels of CBX7”. Further, the “sensitivity of nascent ANRIL transcription” value in data set [4] is reported as “shows sensitivity to α-amanitin”.

B1: RNase A: ribonuclease A (protein, UniProt P61823 27-150, looked up)
Ribonuclease pancreatic: KETAAAKFERQHMDSSTSAASSSNYCNQMMKSRNLTKDRCKPVNTFVHESLADVQAVCSQKNVACKNGQTNCYQSYSTMSITDCRETGSSKYPNCAYKTTQANKHIIVACEGNPYVPVHFDASV
Regarding B1, in data set [5] (setting [6]), the “site occupation by CBX7, PHC2, Bmi1 and Suz12” value is reported as “dramatically reduced”; the “total levels of H1 and H3” value was “remained about the same”. In addition, in data set [5] (RNase A treatment, at CBX7 occupation sites), the “levels of trimethylated H3K27 and ubiquitinated H2AK119” value is listed as “greatly reduced”.

B2: fluorescein-labeled H3K27me3 peptide (peptide)
chain: APRKQLATKAARK(Me3)SAP
modifications: also: fluorescein label (position not given here)
B2: the equilibrium dissociation constant (Kd) with CBX7 chromodomain was 59 ± 4.7 µM.
